Results as given in patent publication US20120094909A1 (Bristol-Myers Squibb, published 2012).
Substitutions are numbered along the chain they refer to. Names and notes keep the numbering of the source.

B1: ATI001168 (designed binder)
chain: MGVSDVPRDLEVVAATPTSLLISWEPPSHAYGYYRITYGETGGNSPVQEFTVPIGKGTATISGLKPGVDYTITVYAVEYPWKGSGYYHRPISINYRTEIDKPSQHHHHHH
B2: ATI001175 (designed binder)
chain: B1 chain with E25D
B3: 2971A03 (designed binder)
chain: B1 chain with E25D, H29D, A30D, Y79F, K82P, G83H, S84A
notes: Anti-PCSK9 Adnectin, His6-tagged
B4: 2971E02 (designed binder)
chain: B1 chain with E25D, P26A, H29D, A30D, Y79F, K82P, G83H, S84A
notes: as for B3
B5: 2971A09 (designed binder)
chain: B1 chain with E25D, P26A, S28A, H29D, A30D, Y79F, K82P, G83H, S84A
notes: as for B3
B6: ATI001114 (designed binder)
chain: MGVSDVPRDLEVVAATPTSLLISWVPPSDDYGYYRITYGETGGNSPVQEFTVPIGKGTATISGLKPGVDYTITVYAVEFPWPHAGYYHRPISINYRTGSGCHHHHHH
modifications: PEGylated on the cysteine of the C-terminal GSGC tail (two-branched 40 kDa PEG)
notes: PEGylated version of the 2013E01 Adnectin, His6-tagged; also called ATI1114
B7: ATI001117 (designed binder)
chain: B6 chain with P27S, D29H, D30A, I54V, K56V, F79Y, P80A, W81F, P82E, H83G
modifications: PEGylated on the cysteine of the C-terminal tail (marked by asterisk in Table 5 as having been pegylated; PEG not specified)
notes: Anti-PCSK9 Adnectin, cysteine mutant of 2011H05, His6-tagged; also called 2011H05 Cys mut
B8: ATI001119 (designed binder)
chain: MGVSDVPRDLEVVAATPTSLLISWRPPSNGHGYYRITYGETGGNSPVQEFTVPVNEGTATISGLKPGVDYTITVYAVEFPFKWSGYYHRPISINYRTGSGCHHHHHH
modifications: PEGylated on the cysteine of the C-terminal tail (marked by asterisk in Table 5 as having been pegylated; PEG not specified)
notes: Anti-PCSK9 Adnectin, cysteine mutant of 2012A04, His6-tagged; also called 2012A04 Cys mut
B9: 2382D08 (designed binder)
chain: B1 chain with E25D, P26A, S28A, H29D, A30G, I54V, G55S, Y79F, W81F, K82P
B10: 1784F03-m1 (designed binder)
chain: B1 chain with E25D, P26A, S28I, I54G, G55S, K56E, P80T, W81F, G83H
B11: 1784F03-m2 (designed binder)
chain: B1 chain with E25D, P26A, S28A, I54G, G55S, P80T, W81F, G83H
B12: 1784F03-m3 (designed binder)
chain: MGVSDVPRDLEVVAATPTSLLISWDAPAVTYGYYRITYGETGGNSPVQEFTVPGSKSTATISGLKPGVDYTITVYAVEYTFKHSGYYHRPISINYRTEIDKPSQHHHHHH
B13: 2382B11 (designed binder)
chain: B12 chain with V29A, T30A, G54V, S57G, T80D, K82A, H83G
B14: 2451F03 (designed binder)
chain: B12 chain with A26P, V29E, T30G, G54V, S57G, Y79F, T80N, K82P, H83G
B15: 2011B11 (designed binder)
chain: B1 chain with E25A, H29D, W81Y, K82S, G83H, S84A
B16: 2011H05(V23D) (designed binder)
chain: B1 chain with E25D, P27S, I54V, K56V, P80A, W81F, K82E, S84A
B17: 2451B02 (designed binder)
chain: B12 chain with V29A, T30A, G54V, S57G, Y79F, T80D, F81Y, K82P, H83G
B18: 2451D05 (designed binder)
chain: B12 chain with V29G, T30A, G54V, S57G, Y79F, T80D, K82P, H83G
B19: 2382C11 (designed binder)
chain: B12 chain with V29G, T30G, G54V, S57G, T80D, K82A, H83G
B20: 2451B05 (designed binder)
chain: B12 chain with V29G, T30G, G54S, S57G, Y79F, T80D, F81Y, K82P, H83G
B21: 2382F08 (designed binder)
chain: B12 chain with V29E, T30A, G54V, S57G, Y79F, F81Y, K82P, H83G
B22: 2382H11 (designed binder)
chain: B12 chain with V29D, T30G, G54V, S55F, S57G, Y79F, T80D, F81Y, K82P, H83G
B23: 2451A02 (designed binder)
chain: B12 chain with V29A, T30G, G54V, S57G, Y79F, T80P, K82P, H83G
B24: 2382H07 (designed binder)
chain: B12 chain with V29D, T30A, S57G, Y79F, T80D, K82P, H83G
B25: 2011H05(V23E) (designed binder)
chain: B1 chain with P27S, I54V, K56V, P80A, W81F, K82E, S84A
B26: 2382E09 (designed binder)
chain: B12 chain with V29E, T30A, G54V, S57G, T80D, K82P, H83G
B27: 2451H01 (designed binder)
chain: B12 chain with V29A, T30G, G54V, S57G, T80D, K82P, H83G
B28: 2382F09 (designed binder)
chain: B12 chain with V29A, T30A, G54V, S57G, T80D, K82P, H83G
B29: 2382B08 (designed binder)
chain: B12 chain with V29D, T30A, G54S, S57G, Y79F, T80A, K82P, H83G, S84A
B30: 2451G01 (designed binder)
chain: B12 chain with V29G, T30G, G54S, S57G, Y79F, T80D, K82P, H83G
B31: 2381D02 (designed binder)
chain: MGVSDVPRDLEVVAATPTSLLISWEPFSRLPGGGEYYRITYGETGGNSPLQQFTVPGSKGTATISGLKPGVDYTITVYAVEYPYDHSGYYHRPISINYRTEIDKPSQHHHHHH
B32: 2381H03 (designed binder)
chain: B31 chain with D85A, Y90F
B33: 2381G03 (designed binder)
chain: B31 chain with Y82F, D85A
B34: 2381A04 (designed binder)
chain: B31 chain with D85P, H86F
B35: 2381B06 (designed binder)
chain: B31 chain with D85P
B36: 1923B02(N82I) (designed binder)
chain: MGVSDVPRDLEVVAATPTSLLISWTPPPKGYGYYRITYGETGGNSPVQEFTVPVGEGTATISGLKPGVDYTITVYAVEYTYIGAGYYHRPISINYRTGSGSHHHHHH
B37: 1922G04(R25D) (designed binder)
chain: B6 chain with V25D, D29H, D30A, F79Y, P82K, H83G, A84S, C101S
B38: 1922G04(R25S) (designed binder)
chain: B6 chain with V25S, D29H, D30A, F79Y, P82K, H83G, A84S, C101S
B39: 1923B02(T80A) (designed binder)
chain: B36 chain with T80A, I82N
B40: 1923B02(N82E) (designed binder)
chain: B36 chain with I82E
B41: 1922G04(R25E) (designed binder)
chain: B6 chain with V25E, D29H, D30A, F79Y, P82K, H83G, A84S, C101S
B42: 2451B06 (designed binder)
chain: MGVSDVPRDLEVVAATPTSLLISWDAPADGGYGYYRITYGETGGNSPVQEFTVPVSKGTATISGLKPGVDYTITVYAVEFDFPGAGYYHRPISINYRTEIDKPSQHHHHHH

target: T1, human PCSK9 (proprotein convertase subtilisin kexin type 9) (human, UniProt Q8NBP7 31-692); test: BLI, biotinylated hPCSK9 on sensor tips
T1 construct: Directly immobilized (SPR ProteOn), biotinylated (BLI), or in solution, depending on the assay; also called hPCSK9
Procedure: Tips were then immersed into a buffer-only well for observation of Adnectin dissociation. Experiments were performed in a temperature controlled environment at either 25 or 37° C., and the oscillation speed was set at 1500 rpm.
Binding interaction analysis was performed using proprietary software from Fortebio (Fortebio Data Analysis Software version 6.3.0.36). Global fits were performed for all samples, using a 1:1 binding model. The nature of these global fits constrained all values of concentration to a single pair of association and dissociation rates that were themselves constrained to each other. Affinities (KD), association and dissociation rates were averaged over the various loading levels used in the analysis.

Kd [nM] | koff [s⁻¹] | kon [M⁻¹ s⁻¹] | Binder
0.586 | 0.000333 | 583000 | B1
0.543 | 0.000352 | 656000 | B2
0.806 | 0.00042 | 574000 | B3
1.78 | 0.000555 | 355000 | B4
2.79 | 0.00105 | 399000 | B5
4.88 | 0.000395 | 80700 | B6
0.554 | 5.07e-05 | 145000 | B7
5.3 | 0.000445 | 81900 | B8

target: T2, human PCSK9 (proprotein convertase subtilisin kexin type 9) (human, UniProt Q8NBP7 31-692); test: cell-based or functional assay

LDLR Depletion (% inhibition at 75 nM) [%] | LDLR Depletion EC50 [nM] | Binder
107 |  | B9
 | > 2000 | B10
 | > 2000 | B11
 | > 2000 | B12
88.8 |  | B13
113 |  | B14
144 |  | B15
 | 18 | B16
71.4 |  | B17
115 |  | B18
82.9 |  | B19
91.7 |  | B20
105 |  | B21
117 |  | B22
106 |  | B23
86.2 |  | B24
 | 12 | B25

LDLR Depletion (% inhibition at 75 nM) [%] | LDLR Depletion EC50 [nM] | Binder
97.2 |  | B26
95.8 |  | B27
110 |  | B28
107 |  | B29
90.8 |  | B30
185 |  | B31
89.8 |  | B32
70.2 |  | B33
100 |  | B34
120 |  | B35
 | 14 | B36
 | 29 | B37
 | 21 | B38
 | 42 | B39
 | 28 | B40
 | 29 | B41

target: T2, human PCSK9 (proprotein convertase …); test: PCSK9:EGFA FRET, competitor EGFA peptide

EC50 [nM] | Binder
3.1 | B9
2.9 | B13
2.8 | B14
1.7 | B15
5.5 | B16
5.3 | B17
2.8 | B18
3.7 | B19
6.3 | B20
2.5 | B21
2.9 | B22
3.2 | B23
2.7 | B24
7.4 | B25
6.2 | B26
2.8 | B27
3.1 | B28
2.9 | B29
3.8 | B30
3.1 | B31
3.4 | B32
3.4 | B33
3.3 | B34
3.5 | B35
2.5 | B37
3.5 | B41
4.5 | B42
